# Source: US20100273722
# Experiment: sedimentation equilibrium AUC, self-association, 25 C
substance,measurement,value
pancreatic peptide YY (PYY),% monomer at 30 µM,94%
